Paper PMC2115109
“And” between values parts separate entries of the source, which are not always exact repeats. Equal values may be shown once.

Key:
[1] = target: F-actin (actin filaments) from rabbit skeletal muscle (rabbit) (UniProt P68135); assay: co-sedimentation
[2] = target: monomeric actin from rabbit skeletal muscle (rabbit) (UniProt P68135); assay: pull-down

CT28N, 28-kD chymotryptic fragment from the NH2-terminal half of human plasma gelsolin (domain or fragment), sequence (P06396 151-406): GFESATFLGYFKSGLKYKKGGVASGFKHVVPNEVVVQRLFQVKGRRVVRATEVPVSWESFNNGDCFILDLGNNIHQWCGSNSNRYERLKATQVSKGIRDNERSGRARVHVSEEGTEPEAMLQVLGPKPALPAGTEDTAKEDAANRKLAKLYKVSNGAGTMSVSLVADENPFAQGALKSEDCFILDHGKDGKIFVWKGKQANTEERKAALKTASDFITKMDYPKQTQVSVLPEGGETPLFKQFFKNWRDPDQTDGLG
CT45N, 45-kD NH2-terminal half chymotryptic fragment of human plasma gelsolin (domain or fragment), sequence (P06396 1-406): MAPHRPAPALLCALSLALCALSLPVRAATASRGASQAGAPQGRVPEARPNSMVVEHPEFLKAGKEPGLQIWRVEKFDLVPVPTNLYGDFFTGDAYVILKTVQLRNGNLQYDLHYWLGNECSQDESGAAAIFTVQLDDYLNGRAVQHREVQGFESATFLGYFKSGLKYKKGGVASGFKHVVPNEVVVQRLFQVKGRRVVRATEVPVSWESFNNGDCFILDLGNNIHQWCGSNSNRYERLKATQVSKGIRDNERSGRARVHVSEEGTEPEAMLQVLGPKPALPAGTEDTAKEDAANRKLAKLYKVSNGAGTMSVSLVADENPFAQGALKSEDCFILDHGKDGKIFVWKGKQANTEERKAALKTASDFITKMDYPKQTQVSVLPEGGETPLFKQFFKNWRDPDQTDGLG

Ka [1] | Kd [1] | percent of input sedimented [1] | Substance | percent sedimented [1] | radioactivity on the beads [2]
5e+06 M⁻¹ | 0.2 µM and 0.28 µM | 100% | CT28N, 28-kD chymotryptic fragment from the NH2-terminal half of human plasma gelsolin (domain or fragment) | 100% | 
 |  |  | CT45N, 45-kD NH2-terminal half chymotryptic fragment of human plasma gelsolin (domain or fragment) | 67% | 540 cpm
